Data on 3 molecules can be found in patent US20170368119A1, “METHODS AND COMPOSITIONS FOR TREATING C-MET ASSOCIATED CANCERS” (YEASTERN BIOTECH CO., LTD, priority 2014, published 2017).

Assay type in all cases: cell-based, human
Test [1] deals with HCC329. Nature of the test: wound healing migration assay, HCC329. The following applies: wound healing assays, data not shown. As for the experimental part:
The HCC cells were cultivated on 24-well plates accompanied with a wound healing culture insert until confluence followed by serum starvation of the cells for 24 hours and the culture insert were then removed. After appropriate treatments, pictures were taken under a phase contrast microscope at indicated times.
Cell numbers were counted, and the relative doubling times of the respective treated groups were determined by taking the data of the untreated group as 100%. […] Relative migration was analyzed quantitatively by taking the motility of untreated cells (Con) as 1.0.

Test [2] relates to p-JNK, p-ERK, p-AKT, p-EGFR in HCC329. The test is described as follows: immuno-blotting of signaling molecules, HCC329. The settings on record: within 4 to 16 hours, data not shown. From the text:
To investigate the molecular mechanism of FIP-gts in suppression of tumor progression of HCCs, the effects of FIP-gts on the activity and/or quantity of the critical members present in c-Met dependent signaling pathway, including c-Met, phosphorylated c-Met (p-c-Met) and downstream effectors p-JNK and p-ERK, were examined in HCCs. […] Total proteins were harvested from the cells and subjected to immuno-blotting analysis using GAPDH as a loading control. Antibodies for p-c-Met, p-JNK, p-ERK and p-paxillin (S178), GAPDH and ERK were purchased from Santa Cruz Biotechnology (California, USA). The band intensities on the blots were quantified with Image J. Software. Relative band intensity of each molecule was calculated, taking the data of untreated HCC372 or HCC329 as 1.0.

A further test concerns HCC372. The test is described as follows: MTT cell viability, HCC372. The settings on record: 48 hours. As for the experimental part:
(§1) HCC372 and HCC329 cell lines established in Example 2 were cultured in 24-well plates at 1×10^5 cells/well in Dulbecco's Modified Eagle Medium (DMEM; Sigma, St. Louis, Mo., USA) supplemented with 1% heat-inactivated fetal bovine serum (FBS; Gibco, N.Y., USA) in the presence or absence of FIP-gmi, FIP-fve and FIP-vvo prepared in Example 4 at 1, 2.5 and 5 μg/ml for 48 hours. The supernatant was removed and 25 μl per well of 2.5 mg/ml MTT (3-[4,5-dimethylthiazol-2-yl]-2,5-dipheyltetrazolium bromide; Sigma Chemical Co., St. Louis, Mo., USA) in phosphate-buffered saline (PBS) was added. The plates were incubated at 37° C. for 1 hour to allow the transformation of MTT into water-insoluble formazan crystals. Then, the supernatant was removed and dimethyl sulfoxide (DMSO) was added to all wells and mixed thoroughly to dissolve the dark blue crystals. After a few minutes at room temperature to ensure that all crystals were totally dissolved, the plates were read at 570 nm. Relative survival rate was calculated by taking the number of untreated cells (Con) as 100%. The results are shown in FIGS. 6A and 6B, where the data were representative of 4 reproducible experiments.

Test [3] deals with HCC329. Nature of the test: MTT cell viability, HCC329. The settings on record: 48 hours. As for the experimental part: as §1
The test system of test [4] is c-Met, p-c-Met and p-JNK in HCC372. Nature of the test: western blotting of c-Met dependent signaling (Example 10), HCC372. The settings on record: HCC372 (HGFR-positive). As for the experimental part:
To investigate the molecular mechanism of FIP-gts in suppression of tumor progression of HCCs, the effects of FIP-gts on the activity and/or quantity of the critical members present in c-Met dependent signaling pathway, including c-Met, phosphorylated c-Met (p-c-Met) and downstream effectors p-JNK and p-ERK, were examined in HCCs. HCC329 and HCC372 cells were treated with FIP-gts (2 μg/ml) for 4 or 24 hours. Total proteins were harvested from the cells and subjected to immuno-blotting analysis using GAPDH as a loading control. Antibodies for p-c-Met, p-JNK, p-ERK and p-paxillin (S178), GAPDH and ERK were purchased from Santa Cruz Biotechnology (California, USA). The band intensities on the blots were quantified with Image J. Software. Relative band intensity of each molecule was calculated, taking the data of untreated HCC372 or HCC329 as 1.0. The results were shown in FIGS. 5A and 5B, in which (**) (##) and (*) (#) represent statistical significance (p<0.005 and p<0.05, respectively, n=3) between the indicated inhibitor-treated sample and untreated HCC329 or HCC372 control group.
The experiments described in Example 7 were repeated, except that FIP-gts was replaced with FIP-gmi, FIP-fve and FIP-vvo for treating HCC329 and HCC372. […] In addition, since c-Met was not substantially expressed in HCC329, the inhibitory effects of FIP-gmi, FIP-fve and FIP-vvo on HCC329 must be exerted through blockage on a c-Met independent signaling, such as EGFR-dependent signaling pathway.
A general note: In western blotting, separated proteins are transferred to a membrane and probed.

On to `Cc1cc(C)c(/C=C2\C(=O)Nc3ccccc32)[nH]1` [SU5416, reference compound], for which the “suppression of cell migration by EGFR inhibitors” value in the test on HCC329 [1] was found to be 80%. The “reduction of the level of p-JNK by EGFR inhibitors” value in test [2] stood at 30%.

B1: FIP-gmi: fungal immunomodulatory protein from Ganoderma microsporum, SEQ ID NO: 6 (protein, listed as Ganoderma microsporum)
chain: MSDTALIFTLAWNVKQLAFDYTPNWGRGRPSSFIDTVTFPTVLTDKAYTYRVVVSGKDLGVRPSYAVESDGSQKINFLEYNSGYGIADTNTIQVYVIDPDTGNNFIVAQWN
Consider B1, for which the “suppression of growth (MTT)” value in the test with HCC372 (2.5 μg/ml) was 23%; with HCC372 (5 μg/ml), 96%; with HCC329 [3] (2.5 μg/ml), 23%; in the test on HCC329 [3] (5 μg/ml) it was 94%. For the same molecule, in test [4], the “effect on c-Met” value was “significantly suppressed”. Moreover, the “effect on p-JNK” value in test [4] was “significantly suppressed”. In addition, in test [4], the “effect on p-c-Met” value is on record as “significantly suppressed”.

B2: FIP-vvo: fungal immunomodulatory protein from Volvariella volvacea, SEQ ID NO: 3 (protein, listed as Volvariella volvacea)
chain: STDLTQLLFFIAYNLQKVNFDYTPQWQRGNPSSYIDAVVFPRVLTNKAYQYRVVTGDKDLGIKPSYSVQADGSQKVNLLEYNGGYGVADTTTIKIYVVDPSNGNQYLIAQWK
As for B2, the “suppression of growth (MTT)” value in the test with HCC372 (2.5 μg/ml) amounted to 48%; with HCC372 (5 μg/ml) it was 96%; in the test on HCC329 [3] (2.5 μg/ml) it was 54%; with HCC329 [3] (5 μg/ml) it was 95%. The “effect on c-Met” value in test [4] is reported as “significantly suppressed”. In test [4], the “effect on p-JNK” value is “significantly suppressed”. The “effect on p-c-Met” value in test [4] is “significantly suppressed”.
